We go through 14 molecules from US20220204613A1 (D 10 THERAPEUTICS, published 2022).

Test [1] deals with T1, human CD47 protein (human, UniProt Q08722 19-139, limits assumed).
T1 construct: also called human CD47 antigen
Nature of the test: SPR (Biacore) affinity ranking, ligand captured through Fc, human CD47 as analyte, 25 °C, 1:1 Binding model; fit of a flat sensorgram.

For test [2], the target named is T1, human CD47 protein. Nature of the test: SPR Biacore, supernatant ranking run, human CD47 analyte 5 nM.
Test [3] deals with T2, extracellular domain of human CD47 (human, UniProt Q08722 19-139).
T2 construct: also called immunogen
T2 sequence (Q08722 19-139 limits assumed): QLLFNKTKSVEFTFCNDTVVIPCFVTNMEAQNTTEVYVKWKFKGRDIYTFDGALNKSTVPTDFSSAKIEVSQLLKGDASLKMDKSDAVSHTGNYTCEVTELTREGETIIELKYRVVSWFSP
Nature of the test: hybridoma screening ELISA on the immunogen. As to the method: Balb/c mice (4-6 mice per group) were immunized with the extracellular domain of human CD47 and immune adjuvant. Immune boosts were performed 3-5 times. Serum collection and titer evaluation by ELISA against target immunogen were performed. Spleens were extracted surgically from the highest titer mouse or mice. Mouse spleen cells were fused with rat myeloma cells facilitated by PEG. Fused cells were seeded into 96-well plates in the presence of HAT Fusion medium. Three consecutive rounds of clone testing were performed by ELISA using the immunogen for positive screening to identify and validate the positive hybridoma clones. Hybridoma cell lines producing the most suitable antibodies were subcloned and expanded for monoclonal antibody production and cell storage.
(An ELISA detects its analyte on a solid surface through an enzyme-linked reagent.)

Test [4] addresses T1, human CD47 protein. Nature of the test: ELISA on human CD47 protein, antibody 1.85E-01 ug/ml.
Test [5] deals with T1, human CD47 protein. Nature of the test: ELISA on human CD47 protein, antibody 2.29E-03 ug/ml.
In test [6] the target is T1, human CD47 protein. Nature of the test: ELISA on human CD47 protein, antibody 2.06E-02 ug/ml.
The target of test [7] is T1, human CD47 protein. Nature of the test: ELISA on human CD47 protein, antibody 7.62E-04 ug/ml.
Test [8] has as its target T1, human CD47 protein. Nature of the test: ELISA on human CD47 protein, antibody 5.56E-01 ug/ml.
For test [9], the target named is T1, human CD47 protein. Nature of the test: ELISA on human CD47 protein, antibody 0 ug/ml (blank).
The target of test [10] is T1, human CD47 protein. Nature of the test: ELISA on human CD47 protein, antibody 45 ug/ml.
For test [11], the target named is T1, human CD47 protein. Nature of the test: ELISA on human CD47 protein, antibody 6.86E-03 ug/ml.
Test [12] deals with T1, human CD47 protein. Nature of the test: ELISA on human CD47 protein, antibody 6.17E-02 ug/ml.
Test [13] deals with T1, human CD47 protein. Nature of the test: ELISA on human CD47 protein, antibody 5.00E+00 ug/ml.
Test [14] concerns the target T1, human CD47 protein. Nature of the test: ELISA on human CD47 protein, antibody 1.67E+00 ug/ml.
The target in test [15] is T1, human CD47 protein. Nature of the test: ELISA on human CD47 protein, antibody 15 ug/ml.
Test [16] addresses T1, human CD47 protein. Nature of the test: SPR Biacore, supernatant antibody Fc-captured, human CD47 analyte 5 nM. The procedure: Production and affinity ranking of humanized antibodies. The designed plasmids of heavy chain and light chain were sent for 3 mL transfection following GenScript's SOP. For affinity ranking, Antibodies were captured on the sensor chip through Fc capture method. Human CD47 protein was used as the analyte. The surface was regenerated before the injection of another antibody. The process was repeated until all antibodies were analyzed. The off-rates of antibodies were obtained from fitting the experimental data locally to 1:1 interaction model using the Biacore® T200/8K evaluation software. The antibodies were ranked by their dissociation rate constants (off-rates, kd).
In general terms: Surface plasmon resonance follows binding to a sensor surface in real time, without labels.

Test [17] deals with T1, human CD47 protein. Nature of the test: SPR Biacore, purified IgG Fc-captured, human CD47 analyte 0.3125-10 nM. The source says: Affinity measurement of purified humanized IgGs. The affinity of purified antibody binding to human CD47 was individually determined using a Surface Plasmon Resonance (SPR) biosensor, Biacore® T200/8K (GE Healthcare). Antibodies were captured on the sensor chip through Fc capture method. Human CD47 protein was used as the analyte. The data of dissociation (kd) and association (ka) rate constants were obtained using Biacore T200/8K evaluation software. The equilibrium dissociation constants (KD) were calculated from the ratio of kd over ka.

Residue numbers refer to the chain shown, from its start. Names and notes keep the numbering of the source.

T1 sequence (Q08722 19-139 limits assumed): as above

In the test with human CD47 protein [1], NC showed a Kd of 387000 pM, a koff of 0.0179 s⁻¹ and a kon of 46300 M⁻¹ s⁻¹. In the test with human CD47 protein [2], this molecule yielded a Kd of 387000 pM, a koff of 0.0179 s⁻¹ and a kon of 46300 M⁻¹ s⁻¹.

B1: 41B1H9 (antibody, V domains shown)
VH: EVQLQQSGTELVKPGASVRLSCTASGLDIKDTYMHWLKQRPEQGLEWIGRIDPASGNAKHDPKFQGKATITSDPSSNTANLQLTSLTSEDSAVYYCASGYGHYVGAMDYWGQGTSVTVSS
VL: DIQMNQSPSSLSASLGDTITITCHASQNINVWLSWYQQKPGNIPKLLIYKASNLHTGVPSRFSGSGSGTGFTLTISSLQPEDIATYYCQQSRNYPYTFGGGTKLEIK
notes: Mouse hybridoma antibody; also called antibody 41B1H9
As to B1, the binding result in [3] was “binds”.

B2: 37H4H3 (antibody, V domains shown)
VH: EVQLQQSGPELVKPGASVKLSCKASGYTFTSSVMHWVKQKPGQGLEWLGYINPYSDGTKFNEKYKTKATLTSDKSSSTAYMELSSLTSEDSAVYYCARGLIGTRYDSWFAYWGQGTLVTVSA
VL: DIQMTQNASSLSASLGDRVTISCRTSQDINNYLNWYQQKPDGTVKLLIYYTSRLHSGVPSRFSGSGSGTDYSLSIRYLEQEDIATYFCHQGNTLPYTFGGGTKLEIK
notes: Mouse hybridoma antibody; also called antibody 37H4H3
Take B2: in test [3], the binding result is given as “binds”.

B3: 38F1E12 (antibody, V domains shown)
VH: EVQLQQSGPELVQPGASVRMSCKASGYTFTSYVMHWVKQKPGQGLEWIGYINPYNDGTKYNEKFKGKATLTSDKSSSTAYMELSSLTSEDSAVYYCARGRNRYDGWFTYWGQGTLVTVSA
VL: B2 VL with N7T, A8T, S9F, T25A, N30S, S74T, R76S, Y77N, H89Q
notes: Mouse hybridoma antibody; also called antibody 38F1E12
For the molecule B3, the binding result in [3] is “binds”.

B4: chimeric-VH+VL2 (antibody, human IgG4, V domains shown)
VH: B2 VH with M34I, Y64C, T66I
VL: B1 VL with S91G, R92Q, N93S, Y96L, G100A, I106L
As to B4, the ELISA signal in the test with human CD47 protein [4] was 0.475; in the test with human CD47 protein [5] it was 0.276; in the test with human CD47 protein [6] it was 0.342; with human CD47 protein [7] it was 0.255; with human CD47 protein [8], 0.56; with human CD47 protein [9] it was 0.251. Moreover, the ELISA signal turned out to be 1.95 with human CD47 protein [10]; 0.44 with human CD47 protein [11]; 0.435 in the test with human CD47 protein [12]; 0.918 with human CD47 protein [13]; 0.663 with human CD47 protein [14]; 1.39 with human CD47 protein [15].

B5: chimeric-VH-PTM1+VL-1 (antibody, human IgG4 S228P, V domains shown)
VH: B2 VH with M34I, D56E, Y64S, T66I
VL: B2 VL with A8G, P40Q, S74T, Y77N, H89Q
notes: Heavy chain with hIgG4 CH (S228P); Light chain: mouse VL-1 with a human constant region; Tested from supernatant; also called U0959FD090-chimeric-VH-PTM1 with 32G8H6 VL-1
In the test with human CD47 protein [16], B5 registered a Kd of 292 pM, a koff of 0.00215 s⁻¹ and a kon of 7.36e+06 M⁻¹ s⁻¹.

B6: 33H11F3 (antibody, V domains shown)
VH: EVQLQQSGPELVKPGASVKMSCKASGYTFTSYVMHWVKQKPGQGLEWMGYINPYNDGTKYNEKFKGKATLTSDKSSNTAYMEFSSLTSEDSAVYYCARIDYGTIHTSWFAYWGQGTLVTVSA
VL: B2 VL with Q6H, N7T, A8T, T25A, N30S, S74T, R76S, Y77N, H89Q, Y96W
notes: Mouse hybridoma antibody; also called antibody 33H11F3
B6: the binding result in [3] is reported as “binds”.

B7: chimeric-VH-PTM2+VL-1 (antibody, human IgG4 S228P, V domains shown)
VH: B2 VH with M34I, G57A, Y64S, T66I
VL: B2 VL with A8G, P40Q, S74T, Y77N, H89Q
notes: Heavy chain with hIgG4 CH (S228P); Light chain: mouse VL-1 with a human constant region; Tested from supernatant; also called U0959FD090-chimeric-VH-PTM2 with 32G8H6 VL-1
For B7, in the test with human CD47 protein [16], binding was characterised by a dissociation constant (Kd) of 488 pM, the koff was found to be 0.00442 s⁻¹ and the kon came to 9.06e+06 M⁻¹ s⁻¹.

B8: VH1-PTM+VL1 (antibody, human IgG4 S228P, kappa, V domains shown)
VH: QVQLVQSGAEVKKPGASVKVSCKASGYTFTSSVIHWVRQAPGQGLEWMGYINPYSEGTKFNEKSKIRVTMTRDTSISTAYMELSRLRSDDTAVYYCARGLIGTRYDSWFAYWGQGTLVTVSS
VL: DIQMTQSPSSLSASVGDRVTITCRTSQDINNYLNWYQQKPGKAPKLLIYYTSRLHSGVPSRFSGSGSGTDFTFTISSLQPEDIATYYCQQGNTLPYTFGGGTKVEIKR
notes: Purified humanized IgG with PTM sites removed, hIgG4 CH (S228P) and human kappa CL; leader residues 1-19 of each entry left out; also called U0959FD090-VH1-PTM + U0959FD090-VL1
In the test with human CD47 protein [17], B8 gave a Kd of 872 pM, a koff of 0.0023 s⁻¹ and a kon of 2.64e+06 M⁻¹ s⁻¹.

B9: VH4+VL4 (antibody, human IgG4 S228P, kappa, V domains shown)
VH: B8 VH with R38K, M48L, E56D, S64C, V68A, R72S, T74K
VL: B8 VL with T22S, A43T, P44V, F71Y, Y87F
notes: Humanized IgG, hIgG4 CH (S228P) and human kappa CL; leader residues 1-19 of each entry left out; Tested from supernatant; also called U0959FD090-VH4 + U0959FD090-VL4
In the test with human CD47 protein [16], B9 came in with a Kd of 553 pM, a koff of 0.00278 s⁻¹ and a kon of 5.02e+06 M⁻¹ s⁻¹.

B10: VH1-PTM+VL3 (antibody, human IgG4 S228P, kappa, V domains shown)
VH: B8 VH
VL: B8 VL with P44V, F71Y, Y87F
notes: Purified humanized IgG with PTM sites removed, hIgG4 CH (S228P) and human kappa CL; leader residues 1-19 of each entry left out; also called U0959FD090-VH1-PTM + U0959FD090-VL3
In the test with human CD47 protein [17], B10 gave a Kd of 458 pM, a koff of 0.0016 s⁻¹ and a kon of 3.49e+06 M⁻¹ s⁻¹.

B11: VH4+VL2 (antibody, human IgG4 S228P, kappa, V domains shown)
VH: B8 VH with R38K, M48L, E56D, S64C, V68A, R72S, T74K
VL: B8 VL with P44V, Y87F
notes: Humanized IgG, hIgG4 CH (S228P) and human kappa CL; leader residues 1-19 of each entry left out; Tested from supernatant; also called U0959FD090-VH4 + U0959FD090-VL2
Consider B11, for which, in the test with human CD47 protein [16], the Kd stood at 772 pM, the koff turned out to be 0.00335 s⁻¹ and the kon was 4.34e+06 M⁻¹ s⁻¹.

B12: VH1-PTM+VL2 (antibody, human IgG4 S228P, kappa, V domains shown)
VH: B8 VH
VL: B8 VL with P44V, Y87F
notes: Purified humanized IgG with PTM sites removed, hIgG4 CH (S228P) and human kappa CL; leader residues 1-19 of each entry left out; also called U0959FD090-VH1-PTM + U0959FD090-VL2
In the test with human CD47 protein [17], B12 yielded a Kd of 556 pM, a koff of 0.00193 s⁻¹ and a kon of 3.46e+06 M⁻¹ s⁻¹.

B13: VH4+VL3 (antibody, human IgG4 S228P, kappa, V domains shown)
VH: B8 VH with R38K, M48L, E56D, S64C, V68A, R72S, T74K
VL: B8 VL with P44V, F71Y, Y87F
notes: Humanized IgG, hIgG4 CH (S228P) and human kappa CL; leader residues 1-19 of each entry left out; Tested from supernatant; also called U0959FD090-VH4 + U0959FD090-VL3
B13: in the test with human CD47 protein [16], the Kd worked out at 591 pM, the koff is 0.00287 s⁻¹ and the kon worked out at 4.85e+06 M⁻¹ s⁻¹.

As a reminder, the Kd is a measure of binding affinity in units of concentration. Broadly, the koff is the first-order rate constant of dissociation. Broadly, the kon is a measure of how fast the partners come together.
